Assay results as given in PMC5095700.

Substrate: N[C@@H]1[C@@H](O)[C@H](O)[C@@H](CO)O[C@H]1O
Assay: purified protein
Type: biochemical, Clostridium acetobutylicum
Conditions: CoA C-terminal domain active site, Trp […], Glu […], Asp […]

B1: Glucosamine/glucosaminide N-acetyltransferase (GlmA) (Clostridium acetobutylicum ATCC 824) (protein)
chain: MEIKETYDFSSIVDLWNKNIGTVYPMNLELFKQNYINDRQRKKIMGAFNGEILIGFVIYKQWTYKSGSLKPNHKIGYINSIIVDINFRHQGIGTKLLDAAEEELINSGVKILRCGSDTYHFFPGIPLECLPSEEFFLVRGYKMQDYFYDLIGDVSKVDFKKPSIKDGFKVNVMKPEDRKGLFEFLEKSFSGRWLEEFIEFFQVGMKERDIVLIKYKTSVIGFSHIYDNKSSFIGPPIYWKALLGHNYGGLGPIGIDKTYRKQGLGRLLLYESLQILKKREVKKMVIDWTEKDIINFYGRFNFMPWKAYRKATKEVKDGKG
B1 showed a Km of 210 ± 20 µM.
